Blank lines part the entries; values can stand above or below the substance they belong to.
Tests used:
[1] = test system: Rev34-50 peptide (HIV-1); settings: CITED natural ligand affinity quoted for comparison, method not stated; cited from earlier work
[2] = test system: Rev peptide (Rev34-50, RhdRev) (HIV-1); experiment: FP; settings: 10 nM tracer titrated with RNA, 85 mM NaCl, 2 mM KCl, 0.5 mM CaCl2, 0.5 mM MgCl2, 10 mM HEPES pH 7.5
[3] = biological target: CXCR4 (chemokine receptor CXCR-4) on PM1 cells; experiment: flow cytometry, PE-12G5 alone on PM1 cells, 30 min at 4° C.
Sequence of CXCR4 (chemokine receptor CXCR-4) on PM1 cells (P61073 whole entry): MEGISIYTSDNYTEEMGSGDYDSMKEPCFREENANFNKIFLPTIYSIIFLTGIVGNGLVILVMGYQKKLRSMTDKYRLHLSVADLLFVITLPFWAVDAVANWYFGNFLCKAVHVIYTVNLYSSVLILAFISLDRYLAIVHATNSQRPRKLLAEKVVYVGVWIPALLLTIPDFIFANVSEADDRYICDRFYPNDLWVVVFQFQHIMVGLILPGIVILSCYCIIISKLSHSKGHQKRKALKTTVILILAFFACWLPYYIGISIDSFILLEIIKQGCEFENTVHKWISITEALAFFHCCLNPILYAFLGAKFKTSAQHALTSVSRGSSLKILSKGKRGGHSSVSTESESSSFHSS

[4] = biological target: CXCR4 (chemokine receptor CXCR-4) on PM1 cells; experiment: flow cytometry, PE-conjugated isotype control on PM1 cells (non-specific fluorescence)
[5] = test system: Tat49-57 peptide (HIV-1); settings: CITED natural ligand affinity quoted for comparison, method not stated; cited from earlier work

Substance: RRE IIB RNA
Kd [1]: 40 nM
Kd ([2]; text gives 16 nM): 16.6 nM

MFI (median fluorescence intensity) [3]: 451 MFI
Substance: anti-CXCR4 mAb, 12G5 (PharMingen, San Diego, Calif.) conjugated to phycoerithrine (PE) (antibody)

MFI (median fluorescence intensity) [4]: 30 MFI
Substance: PE-conjugated isotype control mAb (antibody)

Substance: TAR RNA
Kd [5]: 12 nM
Kd ([2]; table unit taken from text (7 nM)): 7.3 nM

Source: US20040229265A1
